# B1: mutant cinnamic acid decarboxylase FDC (K190E) (enzyme)
# chain: MRKLNPALEFRDFIQVLKDEDDLIEITEEIDPNLEVGAIMRKAYESHLPAPLFKNLKGASKDLFSILGCPAGLRSKEKGDHGRIAHHLGLDPKTTIKEIIDYLLECKEKEPLPPITVPVSSAPCKTHILSEEKIHLQSLPTPYLHVSDGGKYLQTYGMWILQTPDKKWTNWSIARGMVVDDKHITGLVIEPQHIRQIADSWAAIGKANEIPFALCFGVPPAAILVSSMPIPEGVSESDYVGAILGESVPVVKCETNDLMVPATSEMVFEGTLSLTDTHLEGPFGEMHGYVFKSQGHPCPLYTVKAMSYRDNAILPVSNPGLCTDETHTLIGSLVATEAKELAIESGLPILDAFMPYEAQALWLILKVDLKGLQALKTTPEEFCKKVGDIYFRTKVGFIVHEIILVADDIDIFNFKEVIWAYVTRHTPVADQMAFDDVTSFPLAPFVSQSSRSKTMKGGKCVTNCIFRQQYERSFDYITCNFEKGYPKGLVDKVNENWKRYGYK
# notes: It was purified by the same process as FDC1: an N-terminal 6-His/SUMO tag was cleaved off by hydrolase; It was crystallised in complex with the small molecule 3-hydroxyl cinnamic acid; also called FDC1 K190E mutant; FDC mutant (K190E)
# Target: the molecule itself
# Experiment: X-ray crystal structure at 2.15 Å, space group C2, 3 chains per asymmetric unit; homodimer seen in the crystal
# Description: Crystals of mutant cinnamic acid decarboxylase FDC (K190E) in complex with 3-hydroxyl cinnamic acid were grown by the vapor diffusion method. Commercial screening Kit (Hampton research, Qiagen, Emerald Biosystems) was used for screening crystallization conditions. Different volume ratio of protein and reservoir were tested for crystallization. Hanging drops containing a 1:1, 1:2, or 2:1 mixture of protein (5-10 mg/ml) and crystallization buffer (10% (w/v) polyethylene glycol (PEG) 6000, 5% (w/v) 2-methyl-2,4-pantanediol (MPD), 0.1 M HEPES, pH 7.5, and 2 mM DTT) were maintained at 4° C. In particular, well diffracted crystals were grown in 7-11% (w/v) polyethylene glycol (PEG) 6000, 3% (w/v) 2-methyl-2,4-pantanediol (MPD), pH 6.5-7.5, and 2 mM DTT with 0.1% 3-hydroxyl cinnamic acid. Crystal conditions were further improved by adding 0.01M MnCl2, 0.5% (w/v) polyvinylpyrrolidone K15, 0.2M NDSB-201 or 2% (w/v) benzamidine hydrochloride as an additive.
# The FDC(K190E) crystals grew in space group C2 with 3 chains per asymmetric unit. Unit cell dimensions for the crystal were a=249.51 Å, b=120.67 Å, c=158.49 Å, β=94.9°; Diffraction data were collected from single crystals mounted in a cryoloop and flash frozen in a nitrogen stream at 100 K and reduced with the HKL suite. Crystals were diffracted at 2.15 Å resolution. […]
protein,measurement,value
B1,binding result,binds
